Data published in patent US20240041978A1, “LA PROTEIN AS A NOVEL REGULATOR OF OSTEOCLASTOGENESIS” (The U.S.A., as Represented by the Secretary, Department of …, priority 2021, published 2024).

Columns and labels:
[1] = system: HA0-expressing 3T3 fibroblasts and red blood cells; test: HA0-RBC fusion assay; format: cell-based, mouse, human
[2] = molecular target: T1, Anx A5 on PS containing liposomes (Homo sapiens, UniProt P08758); test: Liposome binding assay
T1 sequence (P08758 1-320): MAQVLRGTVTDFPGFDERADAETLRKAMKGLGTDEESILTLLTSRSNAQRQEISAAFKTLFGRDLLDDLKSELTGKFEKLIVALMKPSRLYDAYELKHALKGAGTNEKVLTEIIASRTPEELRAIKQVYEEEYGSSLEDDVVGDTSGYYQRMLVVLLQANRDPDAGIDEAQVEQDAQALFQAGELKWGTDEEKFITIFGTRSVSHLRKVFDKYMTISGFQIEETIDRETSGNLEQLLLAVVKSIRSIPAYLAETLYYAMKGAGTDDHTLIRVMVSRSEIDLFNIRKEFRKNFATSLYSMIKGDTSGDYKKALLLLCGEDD
Excerpt: Anx A5 binds to PS containing membranes in a Ca^2+-dependent manner. Recombinant La was introduced alone or along with recombinant Anx A5 to PS containing liposomes and pelleted liposomes by centrifugation to evaluate whether La was enriched with liposomes or in supernatant (FIG. 12C).
Liposome binding assay: Multilamellar liposomes were formed from pure PC or 9:1 (w/w) mixture of PC and PS. Both lipid compositions were supplemented with 0.5 mol % of lissamine rhodamine phosphatidylethanolamine. To prepare liposomes, lipid stock in benzene/methanol (95:5) was frozen in liquid nitrogen and freeze-dried overnight using SPEEDVAC™ (Savant). Dried lipid was resuspended in aqueous buffer (100 mM NaCl, 10 mM Hepes, pH 7.0) at 1 mM total lipid concentration and vortexed. Proteins and CaCl2 were added to the liposomes and the mixtures were incubated on ice for 30 minutes. To pellet, liposomes were centrifugated at 15,000 g for 20 minutes to pellet, based on rhodamine fluorescence ˜95% of liposomes. Centrifugated samples were then fractionated into a top, liposome-depleted fraction and a bottom fraction containing liposomes and liposome-bound proteins. Fractions were then solubilized via addition of Laemmli buffer (Bio Rad) and separated via SDS-PAGE, as described above. Recombinant La and recombinant Anx A5 were detected via their n-terminal 6×His tag via α-6×His antibody (Abcam) and signals for soluble vs liposome bound protein fractions were evaluated via densitometry. Data were presented as a percentage of protein signal bound to liposomes where: […]

human osteoclasts = test: Synchronized osteoclast membrane fusion after LPC removal; format: cell-based; conditions: recombinant La applied to LPC-synchronized osteoclasts
Description: It was then assessed whether La at the surface of human osteoclasts functions at the cell fusion stage of osteoclastogensis. All cell-cell fusion events in development and tissue maintenance proceed through slow (days), asynchronous differentiation processes that prepare fusion competent cells (Brukman et al., J Cell Biol 218, 1436-1451, doi:10.1083/jcb.201901017 (2019)). Then, PM fusion occurs by the rapid (minutes) progression from the initial formation of hemifusion connections to fusion pores that unite the volumes of two cells (FIG. 3D, top). These steps were decoupled in the formation of multinucleated syncytia using the hemifusion inhibitor lysophosphatidylcholine (LPC) (Verma et al., J Biol Chem 293, 254-270, doi:10.1074/jbc.M117.809681 (2018)). LPC's inverted cone shape is not conducive to the concave geometry of the hemifusion stalk, so ready-to-fuse cells are trapped upstream of hemifusion. After removing LPC, cells undergo synchronized fusion relatively rapidly (within 90 mins), affording the ability to assess the function of proteins specifically in the membrane fusion stage of osteoclast formation decoupled from upstream differentiation processes (FIG. 3D, bottom). Ready-to-fuse, RANKL committed cells were accumulated in the presence of LPC, and then this hemifusion blockade was lifted by washing out LPC. […]

[3] = system: human monocyte-derived osteoclasts; test: Osteoclast fusion assay (number of fusion events, fluorescence microscopy); format: cell-based; conditions: recombinant protein ~40 nM added end of day 2 post-RANKL, overnight
Description: Osteoclasts: Elutriated monocytes from healthy donors were obtained. Cells were plated at 2.9×10^5 per cm^2 in 35 mm dishes with polymer coverslip bottoms (Ibidi #81156) for imaging or 35 mm or 10 cm dishes for biochemical experiments in complete media [α-MEM supplemented with 10% Fetal Bovine Serum (FBS) and penicillin-streptomycin-L-glutamine (Gibco Invitrogene #12571063; #26140079 and #10378016, respectively)]. Monocytes were differentiated to M2 macrophages in the presence of 100 ng/ml M-CSF for 6 days and then differentiated with 100 ng/ml M-CSF and 100 ng/ml RANKL for 3 days unless indicated otherwise. RAW 264.7 cells (ATCC, Manassas, VA, #TIB-71) were maintained in DMEM supplemented with 10% FBS to a maximum of 8 passages. RAW 264.7 cells were differentiated to osteoclasts in the presence of 100 ng/ml murine RANKL for 5 days. To separate unfused mononucleated and fused, multinucleated RAW 264.7 cells into separate fractions, advantage was taken of the much stronger adherence of multinucleated cells to culture dish plastic. After washing in PBS, mixed RAW cultures (following RANKL differentiation) were left in Ca^2+ and Mg^2+ free PBS for 10 minutes at room temperature. Culture dishes were then tapped on the lab bench and a large portion of unfused, mononucleated RAW cells were released, and these released cells were collected via centrifugation. This process was repeated 2-4 times until dishes were left with a population of primarily fused, multinucleated syncytia. Mononucleated and multinucleated cell fractions were then processed for biochemical or imaging experiments as described below.
Constructs & Recombinant proteins & Transfection: Recombinant La 1-408, 1-375, 1-375 Q20A_Y24A_D33I, 1-187 and 188-375 were amplified with primers designed with overlapping sequences and inserted between NdeI/HindIII in the V78 pET28A E. coli expression vector, adding to each a N-terminal 6×his affinity tag. La 1-408 was expressed as a recombinant protein in E. coli and purified using IMAC columns by SD Biosciences (San Diego, CA). The remaining constructs were transformed into BL2 (DE3) chemically competent E. coli (Thermo Fisher Scientific) and protein expression was induced with IPTG. Cells were lysed with Bugbuster (Sigma), and 6×his-La proteins were affinity purified using HisPur Cobalt Spin columns (Thermo Fisher Scientific), each according to the manufacturer's instructions. Endotoxin contaminates were depleted from affinity purified 6×his-La proteins using Pierce high-capacity endotoxin removal columns (Thermo Fisher Scientific), according to the manufacturer's instructions. Proteins were then sterile filtered, aliquoted and kept at −80 C.
Plasmids were introduced into primary osteoclasts at day 2 of RANKL stimulation via jetPRIME (Polyplus Transfection). FLAG-La 1-408, FLAG-La 1-375 and FLAG-La 1-375 Q20A_Y24A_D33I plasmids were a gift of the Maraia Lab (NICHD). Briefly, SSB (UniProt P05455) was inserted between HindIII and BamHI the pFLAG-CMV2 vector (Sigma). “Uncleavable” La was produced by taking the FLAG-La 1-408 plasmid and making two point mutations at amino acids D371A and D374A, abrogating the caspase cleavage sites at the C-terminal region of the protein (Emory Integrated Genomics Core). siRNA were introduced into primary osteoclasts after 1 day of RANKL stimulation via Lipofectamine RNAiMAX (Thermo Fisher Scientific). Non-targeted (Cat #4390843) and SSB-targeted (Cat #4392420_ID:s13469) siRNA were introduced at a concentration of 5 ng/ml (Silencer Select, Ambion).
Fusion Assays: Osteoclast fusion in the culture systems was evaluated by fluorescence microscopy (Verma et al., J Biol Chem 293, 254-270, doi:10.1074/jbc.M117.809681 (2018)). Briefly, cells were fixed with 4% paraformaldehyde at timepoints of interest, permeabilized with 0.1% TRITON™ X-100 and blocked with 5% FBS. Cells were then stained with phallodin-ALEXAFLURO®488 and Hoechst to label cells' actin cytoskeleton and nuclei, respectively. […]

B1: recombinant La: recombinant La, species not specified at the place; 40 nM FL La in HA0-RBC assay (protein, UniProt P05455 1-408, looked up)
Lupus La protein: MAENGDNEKMAALEAKICHQIEYYFGDFNLPRDKFLKEQIKLDEGWVPLEIMIKFNRLNRLTTDFNVIVEALSKSKAELMEISEDKTKIRRSPSKPLPEVTDEYKNDVKNRSVYIKGFPTDATLDDIKEWLEDKGQVLNIQMRRTLHKAFKGSIFVVFDSIESAKKFVETPGQKYKETDLLILFKDDYFAKKNEERKQNKVEAKLRAKQEQEAKQKLEEDAEMKSLEEKIGCLLKFSGDLDDQTCREDLHILFSNHGEIKWIDFVRGAKEGIILFKEKAKEALGKAKDANNGNLQLRNKEVTWEVLEGEVEKEALKKIIEDQQESLNKWKSKGRRFKGKGKGNKAAQPGSGKGKVQFQGKKTKFASDDEHDEHDENGATGPVKRAREETDKEEPASKQQKTENGAGDQ
[1]
  HA0-cell bound RBCs that exchanged lipid (hemifusion) or cytoplasmic (fusion pore) probes: none of 872
  lower activity than fusion mediated by activated HA: at least 100 fold
[1]; upper limit by Wilson's method, 40 nM
  probability of La mediated fibroblast-RBC fusion: ≤ 0.0044 per cell contact
[2]; PS containing liposomes, La alone
  pelleting with liposomes: pelleted poorly
[2]; PS containing liposomes, La with Anx A5, Ca^2+
  pelleting with liposomes: pelleted with liposomes
[2]; liposomes lacking PS
  pelleting with liposomes: neither La nor Anx A5 pelleted
Human osteoclasts
  synchronized osteoclast membrane fusion: dramatically promoted
[3]
  formation of multinucleated syncytia (osteoclast fusion): promotes osteoclast fusion
